Results on one molecule are retold here after paper PMC9352346.

The target of one experiment is T1, GST-Smad4-MH2, Q13485.
T1 chain: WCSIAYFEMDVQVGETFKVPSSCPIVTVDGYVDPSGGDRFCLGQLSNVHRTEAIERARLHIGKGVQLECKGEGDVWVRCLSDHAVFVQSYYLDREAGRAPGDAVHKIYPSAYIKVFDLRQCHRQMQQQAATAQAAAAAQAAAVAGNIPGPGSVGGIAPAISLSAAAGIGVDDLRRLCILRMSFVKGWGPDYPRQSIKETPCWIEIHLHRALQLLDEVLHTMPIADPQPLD
Put plainly: GST pull-down, immunoblot band quantification. As to conditions: chain shown with the change; HEK293T cell lysate; n=3; read off a plot. On the technique in general: Immunoblotting shows a protein as a band on a membrane.

Another experiment deals with T2, GST-Smad4, Q13485.
T2 chain: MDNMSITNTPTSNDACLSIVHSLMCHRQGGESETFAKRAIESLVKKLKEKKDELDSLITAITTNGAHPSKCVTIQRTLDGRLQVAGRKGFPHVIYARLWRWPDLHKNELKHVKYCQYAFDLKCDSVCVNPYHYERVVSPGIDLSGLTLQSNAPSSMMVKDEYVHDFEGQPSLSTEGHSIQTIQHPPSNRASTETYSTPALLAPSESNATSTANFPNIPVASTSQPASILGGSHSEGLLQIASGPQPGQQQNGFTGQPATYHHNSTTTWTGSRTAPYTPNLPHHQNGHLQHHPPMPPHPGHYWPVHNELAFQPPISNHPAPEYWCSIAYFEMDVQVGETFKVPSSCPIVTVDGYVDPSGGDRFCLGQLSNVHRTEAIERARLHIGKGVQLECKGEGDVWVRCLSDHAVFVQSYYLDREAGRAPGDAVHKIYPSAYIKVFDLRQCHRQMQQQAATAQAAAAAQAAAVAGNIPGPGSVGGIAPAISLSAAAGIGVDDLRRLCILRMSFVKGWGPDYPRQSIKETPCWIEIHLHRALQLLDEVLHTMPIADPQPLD
Nature of the experiment: GST pull-down, immunoblot band quantification. As to conditions: chain shown with the change; HEK293T cell lysate; n=3; read off a plot.

B1: Arl15-WT-GFP A86L (protein)
chain: MSDLRITEAFLYMDYLCFRALCCKGPPPARPEYDLVCIGLTGSGKTSLLSKLCSESPDNVVSTTGFSIKAVPFQNAILNVKELGGLDNIRKYWSRYYQGSQGVIFVLDSASSEDDLEAARNELHSALQHPQLCTLPFLILANHQDKPAARSVQEIKKYFELEPLARGKRWILQPCSLDDMDALKDSFSQLINLLEEKDHEAVRM
On to B1, for which the other: relative amount of Arl15-AL-GFP pulled down in the experiment with GST-Smad4-MH2, Q13485 is 0.55; with GST-Smad4, Q13485, 1.
